Experimental data: patent US20040023887A1 (published 2004)

Target: T1, soluble IGF-1R (recombinant human IGF-1R extracellular domain, R&D Systems Cat. # 391-GR/CF) (human, UniProt P08069 31-935)
T1 construct: extracellular domain; Bought protein; coated on plates (phage ELISA, TRF) or Eu-labelled (TR-FRET); also called sIGF-1R; rhIGF-1R
Assay: phage ELISA

Row | Binder | ratio over background [ratio]
1 | ICTGQGFYQVLCGLLRGTSAR (on phage) [20E2B-2-B3-IGFR] | 5.3
2 | QPAPDGFYSALMKLIGRGGVS (on phage) [20E2B-3-C8-IGFR] | 15.6
3 | EGSGFYGYFFSLLGLQG (on phage) [NNRPγ-4-A9-IR] | 10
4 | ASSASGFYELLQRLAGLGLEV (on phage) [20E2B-3-C4-IGFR] | 20.4
5 | RQGTGSFYLMLEQLLVGARGP (on phage) [20E2B-4-G11-IGFR] | 4.5
6 | SACQFDCHENFYDWFARQVSGGAAYG (on phage) [H2CA-4-E8-IGFR] | 9.2
7 | NSRDGGFYLQLERLLGFPVTG (on phage) [20E2B-3-D4-IGFR] | 7.9
8 | QGNVLDFYGWIGRLLAKQGSD (on phage) [20E2B-3-D12-IGFR] | 6.2
9 | QFYGCLLDLSLGVPSFGWRRRCITA (on phage) [20C-3-A4-IGFR] | 8.8
10 | VATSQGFYSGLSELLQGGGNV (on phage) [20E2B-3-E12-IGFR] | 6
11 | FFYRCLSRLLGGQLGSRLGLSCIGD (on phage) [20C-3-E4-IGFR] | 7.7
12 | PVGVQGFYEGLSRLVLGRGGW (on phage) [20E2B-4-F8-IGFR] | 7.3
13 | LGVTDGFYAALGYLIHGVGQF (on phage) [20E2B-3-D11-IGFR] | 12.2
14 | AQPCGGFYGLLEQLVGRSVCD (on phage) [20E2B-4-F10-IGFR] | 17.3
15 | DSVGDNFYQLLESLVGGHGVG (on phage) [20E2B-3-D6-IGFR] | 17.8
16 | IWATGDFYRLLSQLVMGRVGT (on phage) [20E2B-2-28-IGFR] | 5.7
17 | PGTDLGFYQALRCVVIQGACD (on phage) [20E2B-2-B2-IGFR] | 4.9
18 | SAAQLFFQESFYDWFLRQVAESSQPN (on phage) [H2CA-4-F11-IGFR] | 6.8
19 | RFSTDGFYQYLLALVGGGPVG (on phage) [20E2B-1-A11-IGFR] | 9.5
20 | LSSDGQFYRALNLLLQGSAGR (on phage) [20E2B-2-B7-IGFR] | 6.1
21 | IIGGFYSYFNSVLRLGT (on phage) [NNRPγ-4-A1-IR] | 10.9
22 | AVRATRFDEAFYDWFVRQISDGQGNK (on phage) [H2CA-4-F6-IGFR] | 7.3

Target: T2, soluble human insulin receptor-immunoglobulin heavy chain chimera (human, UniProt P06213 28-956, limits assumed)
T2 construct: extracellular domain; also called sIR-Fc; IR (prepared according to Bass et al., 1996); not shown: immunoglobulin heavy chain constant domains (Bass et al., 1996)
Assay: phage ELISA

Row | Binder | ratio over background [ratio]
23 | ICTGQGFYQVLCGLLRGTSAR (on phage) [20E2B-2-B3-IGFR] | 0.7
24 | QPAPDGFYSALMKLIGRGGVS (on phage) [20E2B-3-C8-IGFR] | 1.8
25 | EGSGFYGYFFSLLGLQG (on phage) [NNRPγ-4-A9-IR] | 1.4
26 | ASSASGFYELLQRLAGLGLEV (on phage) [20E2B-3-C4-IGFR] | 3.3
27 | RQGTGSFYLMLEQLLVGARGP (on phage) [20E2B-4-G11-IGFR] | 0.6
28 | SACQFDCHENFYDWFARQVSGGAAYG (on phage) [H2CA-4-E8-IGFR] | 1
29 | NSRDGGFYLQLERLLGFPVTG (on phage) [20E2B-3-D4-IGFR] | 0.8
30 | QGNVLDFYGWIGRLLAKQGSD (on phage) [20E2B-3-D12-IGFR] | 0.9
31 | QFYGCLLDLSLGVPSFGWRRRCITA (on phage) [20C-3-A4-IGFR] | 1.2
32 | VATSQGFYSGLSELLQGGGNV (on phage) [20E2B-3-E12-IGFR] | 0.8
33 | FFYRCLSRLLGGQLGSRLGLSCIGD (on phage) [20C-3-E4-IGFR] | 1.3
34 | PVGVQGFYEGLSRLVLGRGGW (on phage) [20E2B-4-F8-IGFR] | 0.8
35 | LGVTDGFYAALGYLIHGVGQF (on phage) [20E2B-3-D11-IGFR] | 1.6
36 | AQPCGGFYGLLEQLVGRSVCD (on phage) [20E2B-4-F10-IGFR] | 2.2
37 | DSVGDNFYQLLESLVGGHGVG (on phage) [20E2B-3-D6-IGFR] | 2.6
38 | IWATGDFYRLLSQLVMGRVGT (on phage) [20E2B-2-28-IGFR] | 0.8
39 | PGTDLGFYQALRCVVIQGACD (on phage) [20E2B-2-B2-IGFR] | 0.6
40 | SAAQLFFQESFYDWFLRQVAESSQPN (on phage) [H2CA-4-F11-IGFR] | 1
41 | RFSTDGFYQYLLALVGGGPVG (on phage) [20E2B-1-A11-IGFR] | 1
42 | LSSDGQFYRALNLLLQGSAGR (on phage) [20E2B-2-B7-IGFR] | 0.9
43 | IIGGFYSYFNSVLRLGT (on phage) [NNRPγ-4-A1-IR] | 1.8
44 | AVRATRFDEAFYDWFVRQISDGQGNK (on phage) [H2CA-4-F6-IGFR] | 1.1
